Among the data in US20260022150A1 (KEROS THERAPEUTICS, published 2026) are Kd values, retold here.

For the assay, the target named is T1, human GDNF family receptor alpha-1 (GFRα1) joined to an Fc domain at its C-terminus (human, UniProt P56159-2 25-445).
T1 construct: Bought from R&D Systems; also called GFRa1-hFc; human GFRα1 Fc chimera (R&D Systems); not shown: human Fc domain joined to the C-terminus of GFRα1
T1 sequence (looked up): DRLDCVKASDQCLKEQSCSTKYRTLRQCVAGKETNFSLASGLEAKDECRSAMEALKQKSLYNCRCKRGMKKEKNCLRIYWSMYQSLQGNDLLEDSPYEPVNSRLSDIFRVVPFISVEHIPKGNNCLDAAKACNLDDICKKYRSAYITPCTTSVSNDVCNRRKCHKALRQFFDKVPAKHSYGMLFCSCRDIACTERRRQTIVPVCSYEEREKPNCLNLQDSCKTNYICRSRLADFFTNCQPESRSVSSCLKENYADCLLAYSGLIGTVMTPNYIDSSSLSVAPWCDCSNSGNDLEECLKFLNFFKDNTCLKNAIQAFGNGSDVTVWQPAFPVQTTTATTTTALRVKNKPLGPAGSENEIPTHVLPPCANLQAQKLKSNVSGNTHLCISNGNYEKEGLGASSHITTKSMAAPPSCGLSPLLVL
The assay can be described thus: SPR; GFRα1-Fc chimera captured on CM5 chip by His-tag capture kit, analyte flowed over; apparent KD (KD,app). From the text: Surface Plasmon Resonance (SPR) was used to determine the binding affinities of the GDNF fusion polypeptides to GFRα1. The GDNF fusion polypeptides in this example include fusion polypeptides 2-4 as described in Example 1, as well as Fc (T366W)-GGG-hGDNF₁₁₇₋₂₁₁ (SEQ ID NO: 37) (fusion polypeptide 6) which has an Fc domain having the amino acid substitution T366W (relative to the sequence of human IgG1) joined to the N-terminus of the GDNF variant having amino acids 117-211 of SEQ ID NO: 1 through a GGG linker. The SPR assay was configured to capture human GFRα1, GFRα2, and GFRα3 Fc chimeras (R&D Systems) onto a CM5 chip surface using His-tag capture kit (GE Healthcare) to appropriate levels for kinetic analysis. GDNF fusion polypeptides were flowed over the immobilized GFRs to measure the kinetics of GDNF fusion polypeptide and GFR association and dissociation. The binding of various concentrations of GDNF fusion polypeptides was measured in HBS-EP buffer (GE Healthcare) at a flow rate of 30 μL/min. Binding curves were fitted using Scrubber2 software to obtain apparent binding affinities and kinetic constants.
(In SPR one partner is held on a chip, and binding of the other changes the refractive index at the surface.)

B1: R&D hGDNF (ligand, human, UniProt P39905 78-211, looked up)
chain: SPDKQMAVLPRRERNRQAAAANPENSRGKGRRGQRGKNRGCVLTAIHLNVTDLGLGYETKEELIFRYCSGSCDAAETTYDKILKNLSRNRRLVSDKVGQACCRPIAFDDDLSFLDDNLVYHILRKHSAKRCGCI
notes: also called human glial-derived neurotrophic factor
As to B1, the Kd was about 0.9 nM.
